Reference: PMC8440396 (Nature cell biology, 2021)

T1: Flag-CYLD^4A (K767A/K768A/L773A/L775A) (human, UniProt Q9NQC7 1-956, K767A | K768A | L773A | L775A)
T1 sequence: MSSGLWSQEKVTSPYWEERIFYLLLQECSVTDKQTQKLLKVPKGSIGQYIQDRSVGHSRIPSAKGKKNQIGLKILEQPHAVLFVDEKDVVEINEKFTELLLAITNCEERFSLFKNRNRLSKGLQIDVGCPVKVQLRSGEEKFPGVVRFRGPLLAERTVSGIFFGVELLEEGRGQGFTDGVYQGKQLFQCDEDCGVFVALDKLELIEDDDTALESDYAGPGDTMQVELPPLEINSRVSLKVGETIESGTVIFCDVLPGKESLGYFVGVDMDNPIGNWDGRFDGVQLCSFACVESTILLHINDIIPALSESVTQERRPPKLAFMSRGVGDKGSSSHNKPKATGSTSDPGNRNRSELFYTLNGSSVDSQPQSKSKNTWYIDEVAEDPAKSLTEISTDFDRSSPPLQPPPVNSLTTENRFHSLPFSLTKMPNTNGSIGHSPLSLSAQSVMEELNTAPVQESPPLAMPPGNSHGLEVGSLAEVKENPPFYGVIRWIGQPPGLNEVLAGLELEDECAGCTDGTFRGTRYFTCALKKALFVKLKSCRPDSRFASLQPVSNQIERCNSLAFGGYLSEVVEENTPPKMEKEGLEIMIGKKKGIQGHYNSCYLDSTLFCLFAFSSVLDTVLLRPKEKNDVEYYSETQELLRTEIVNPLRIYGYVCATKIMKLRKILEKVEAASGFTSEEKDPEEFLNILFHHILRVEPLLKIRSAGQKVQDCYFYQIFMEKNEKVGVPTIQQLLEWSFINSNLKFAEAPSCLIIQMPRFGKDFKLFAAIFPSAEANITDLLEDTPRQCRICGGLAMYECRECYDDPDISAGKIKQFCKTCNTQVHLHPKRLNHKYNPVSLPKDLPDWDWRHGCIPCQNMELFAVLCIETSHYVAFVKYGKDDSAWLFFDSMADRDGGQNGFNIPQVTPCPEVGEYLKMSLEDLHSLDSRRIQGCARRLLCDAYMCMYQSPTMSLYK

T2: Flag-CYLD (human, UniProt Q9NQC7 1-956)
T2 sequence: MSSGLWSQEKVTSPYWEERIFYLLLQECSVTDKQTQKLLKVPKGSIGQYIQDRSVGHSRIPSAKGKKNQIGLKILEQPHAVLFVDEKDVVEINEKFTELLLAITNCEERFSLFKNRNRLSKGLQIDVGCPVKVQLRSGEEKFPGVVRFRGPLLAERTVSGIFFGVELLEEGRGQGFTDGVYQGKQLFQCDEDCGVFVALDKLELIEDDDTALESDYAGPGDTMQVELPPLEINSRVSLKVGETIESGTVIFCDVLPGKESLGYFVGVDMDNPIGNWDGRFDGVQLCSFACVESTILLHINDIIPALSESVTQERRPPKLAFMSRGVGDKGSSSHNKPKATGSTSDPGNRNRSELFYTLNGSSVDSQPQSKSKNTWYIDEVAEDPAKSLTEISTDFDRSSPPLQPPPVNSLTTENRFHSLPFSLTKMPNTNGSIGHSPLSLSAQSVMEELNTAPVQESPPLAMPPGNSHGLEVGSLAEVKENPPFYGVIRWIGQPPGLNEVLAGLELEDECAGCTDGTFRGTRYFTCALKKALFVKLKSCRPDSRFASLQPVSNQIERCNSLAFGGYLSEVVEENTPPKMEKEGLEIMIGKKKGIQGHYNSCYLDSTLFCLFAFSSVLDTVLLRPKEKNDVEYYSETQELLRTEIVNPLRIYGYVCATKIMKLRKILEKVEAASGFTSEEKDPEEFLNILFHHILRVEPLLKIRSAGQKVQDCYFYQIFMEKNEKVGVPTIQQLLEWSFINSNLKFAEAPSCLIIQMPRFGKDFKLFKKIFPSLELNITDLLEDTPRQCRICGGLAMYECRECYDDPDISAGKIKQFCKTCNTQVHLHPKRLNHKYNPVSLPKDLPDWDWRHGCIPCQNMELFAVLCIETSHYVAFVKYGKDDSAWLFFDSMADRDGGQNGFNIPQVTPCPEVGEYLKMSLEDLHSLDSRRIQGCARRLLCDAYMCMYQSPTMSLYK

T3: Flag-TRIM15 (human, UniProt Q9C019 1-465)
T3 sequence: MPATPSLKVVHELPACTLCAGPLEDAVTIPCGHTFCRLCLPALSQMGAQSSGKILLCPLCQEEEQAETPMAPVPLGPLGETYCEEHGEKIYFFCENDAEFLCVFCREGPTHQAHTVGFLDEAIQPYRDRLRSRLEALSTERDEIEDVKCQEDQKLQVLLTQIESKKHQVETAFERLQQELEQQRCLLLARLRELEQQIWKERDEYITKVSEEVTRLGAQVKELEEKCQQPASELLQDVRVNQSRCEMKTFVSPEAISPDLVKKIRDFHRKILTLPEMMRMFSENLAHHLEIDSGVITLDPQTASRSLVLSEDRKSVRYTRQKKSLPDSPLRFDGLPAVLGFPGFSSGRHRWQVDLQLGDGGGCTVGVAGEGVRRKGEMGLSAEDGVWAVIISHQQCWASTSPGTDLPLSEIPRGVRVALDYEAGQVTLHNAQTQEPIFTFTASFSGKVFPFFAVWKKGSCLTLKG


Experiments:
Experiment in all cases: pull-down
Flag-ERK1^K302R = Flag-ERK1^K302R (human, UniProt P27361 1-379, K302R)
Flag-ERK1 = Flag-ERK1 (human, UniProt P27361 1-379)
[1] = molecular target: T1, Flag-CYLD^4A (K767A/K768A/L773A/L775A)
Flag-CYLD = molecular target: T2, Flag-CYLD
Flag-TRIM15 = molecular target: T3, Flag-TRIM15

| binding result (Flag-ERK1^K302R) | binding result (Flag-ERK1) | binding result [1] | binding result (Flag-CYLD) | binding result (Flag-TRIM15) | Binder |
| --- | --- | --- | --- | --- | --- |
| binds | binds |  |  |  | GST-ELK-1 (aa 307-428) (domain or fragment) ISQPQKGRKPRDLELPLSPSLLGGPGPERTPGSGSGSGLQAPGPALTPSLLPTHTLTPVLLTPSSLPPSIHFWSTLSPIAPRSPAKLSFQFPSSGSAQVHIPSISVDGLSTPVVLSPGPQKP |
|  |  | binds | binds | binds | GST-ERK1 (enzyme) MAAAAAQGGGGGEPRRTEGVGPGVPGEVEMVKGQPFDVGPRYTQLQYIGEGAYGMVSSAYDHVRKTRVAIKKISPFEHQTYCQRTLREIQILLRFRHENVIGIRDILRASTLEAMRDVYIVQDLMETDLYKLLKSQQLSNDHICYFLYQILRGLKYIHSANVLHRDLKPSNLLINTTCDLKICDFGLARIADPEHDHTGFLTEYVATRWYRAPEIMLNSKGYTKSIDIWSVGCILAEMLSNRPIFPGKHYLDQLNHILGILGSPSQEDLNCIINMKARNYLQSLPSKTKVAWAKLFPKSDSKALDLLDRMLTFNPNKRITVEEALAHPYLEQYYDPTDEPVAEEPFTFAMELDDLPKERLKELIFQETARFQPGVLEAP |
